Our source for the Kd values is the Immune Epitope Database (IEDB).

The target of assay [1] is HLA-B*48:01. In words: IEDB peptide-MHC binding, purified MHC/direct/fluorescence; filed as Kd, often an IC50 or EC50 that approximates it; ≥ and ≤ were set here for values at or beyond the usual limits of such assays.
The target in assay [2] is HLA-B*27:05. The description is as above. The conditions noted are these: source organism: West Nile virus.
Assay [3] has as its target HLA-A*30:01. Put plainly: IEDB peptide-MHC binding, purified MHC/competitive/radioactivity; filed as Kd, often an IC50 or EC50 that approximates it; ≥ and ≤ were set here for values at or beyond the usual limits of such assays.
The target of assay [4] is HLA-A*32:01. Described as above.
The target of assay [5] is HLA-B*08:01. Described as above.
Assay [6] deals with HLA-B*15:01. Described as above.
Assay [7] deals with HLA-B*15:03. Described as above.
Assay [8] has as its target HLA-B*15:17. In words: IEDB peptide-MHC binding, purified MHC/direct/fluorescence; filed as Kd, often an IC50 or EC50 that approximates it; ≥ and ≤ were set here for values at or beyond the usual limits of such assays.
Assay [9] addresses HLA-B*58:01. Described as above.
The target of assay [10] is HLA-B*57:01. The assay is described as above.
Assay [11] deals with HLA-A*02:01. In words: IEDB peptide-MHC binding, purified MHC/competitive/fluorescence; filed as Kd, often an IC50 or EC50 that approximates it; ≥ and ≤ were set here for values at or beyond the usual limits of such assays. The conditions noted are these: source organism: Toxoplasma gondii.
For assay [12], the target named is HLA-A*02:12. The description is as above. The following applies: source organism: Toxoplasma gondii.
Assay [13] deals with HLA-A*02:03. In words: IEDB peptide-MHC binding, purified MHC/competitive/radioactivity; filed as Kd, often an IC50 or EC50 that approximates it; ≥ and ≤ were set here for values at or beyond the usual limits of such assays. The following applies: source organism: Vaccinia virus WR.
Assay [14] deals with HLA-A*02:02. The assay is described as above. The conditions noted are these: source organism: Vaccinia virus WR.
The target in assay [15] is HLA-A*02:06. The assay is described as above. The following applies: source organism: Vaccinia virus WR.
The target of assay [16] is HLA-B*18:01. The description is as above.
Assay [17] has as its target HLA-B*44:02. The assay is described as above.
Assay [18] addresses HLA-B*40:02. Described as above.
Assay [19] addresses HLA-B*40:01. The description is as above.
Assay [20] deals with HLA-B*44:03. The description is as above.
The target of assay [21] is HLA-B*45:01. The assay is described as above.
Assay [22] deals with HLA-A*02:03. In words: IEDB peptide-MHC binding, purified MHC/direct/fluorescence; filed as Kd, often an IC50 or EC50 that approximates it; ≥ and ≤ were set here for values at or beyond the usual limits of such assays. The following applies: source organism: Mycobacterium tuberculosis str. Haarlem.
Assay [23] concerns the target HLA-A*69:01. The description is as above. The conditions noted are these: source organism: Mycobacterium tuberculosis.
Setting [24] is: source organism: Vaccinia virus WR.
[25] abbreviates: source organism: Camelpox virus CMS.
Where [26] appears, read: source organism: Giardia lamblia ATCC 50803.
Where [27] appears, read: source organism: SARS coronavirus Tor2.
The mark [28] stands for this setting: source organism: Lymphocytic choriomeningitis virus (strain Armstrong).
The mark [29] stands for this setting: source organism: Mammarenavirus machupoense.
[30] abbreviates: source organism: Bacillus anthracis.

Bounds are passed on as bounds.

The term Kd denotes the concentration at which binding is half-saturated. As to YRLRGEERK, the Kd in assay [1] (source organism: West Nile virus) is no less than 20000 nM; in [2], 883 nM.
With QIVAYFSEF, the Kd in assay [3] (setting [24]) came out at 12700 nM; in assay [4] (setting [24]) it was 70.4 nM; in assay [5] (setting [24]), 1930 nM; in assay [6] (setting [24]) it was 1.38 nM; in [7] (setting [24]), 7.85 nM.
As to ISIPRSVGF, the Kd in assay [8] (setting [25]) was no more than 1 nM; in assay [9] (setting [25]), 30.3 nM; in assay [10] (setting [25]), 85.9 nM.
As for WSIYLSLHY, the Kd in [3] (setting [24]) is 17000 nM; in [4] (setting [24]) it was no less than 29000 nM; in [5] (setting [24]), 2720 nM; in [6] (setting [24]) it was 48.2 nM; in assay [7] (setting [24]), 8.85 nM.
The corresponding values for YQSLSPPPF are 0.503 nM, 4740 nM, no less than 33400 nM, 5050 nM and 0.0611 nM.
As to NLMVNEQAA, the dissociation constant (Kd) in assay [11] is no less than 20000 nM; in [12], 18.9 nM.
In the case of MVKNNKIQK, the Kd in [3] (setting [24]) was 11.8 nM; in assay [4] (setting [24]), no less than 77800 nM; in assay [5] (setting [24]), 17800 nM; in assay [6] (setting [24]), 18300 nM; in assay [7] (setting [24]), 9550 nM.
With TMKERRPIL, the Kd in [3] (setting [24]) was 4730 nM; in assay [4] (setting [24]), 2210 nM; in assay [5] (setting [24]), 1.83 nM; in assay [6] (setting [24]) it was 808 nM; in [7] (setting [24]) it was 397 nM.
For METMFFIRF, the Kd in assay [7] (setting [24]) stood at 52.6 nM.
For the sequence LLKDRNELF, the Kd in [3] (setting [24]) turned out to be 108 nM; in [4] (setting [24]) it was 3070 nM; in assay [5] (setting [24]), 40.6 nM; in assay [6] (setting [24]), 1.82 nM; in assay [7] (setting [24]), 15.7 nM.
On to VQTIVFIWF, for which the Kd in assay [7] (source organism: Vaccinia virus) came out at 306 nM.
In the case of FISRNKNIF, the Kd in assay [7] (setting [24]) stood at 4030 nM.
Turning to RREKRSVAL, the Kd was determined as 40.9 nM in assay [5] (source organism: Dengue virus 2 Jamaica/1409/1983) and 842 nM in [1] (source organism: Dengue virus).
As for NTWNQITKF, the values for the Kd in [8] (setting [26]), in assay [9] (setting [26]) and in [10] (setting [26]) were 76.4 nM, 905 nM and 1110 nM, respectively.
For VLFEVFVVF, the Kd in [3] (setting [24]) is no less than 24400 nM; in assay [4] (setting [24]), 7.8 nM; in [5] (setting [24]) it was 5110 nM; in assay [6] (setting [24]), 2.85 nM; in [7] (setting [24]) it was 4.85 nM.
Regarding KMAVEVGSI, the Kd in assay [13] stood at 2.78 nM; in assay [14], 30.8 nM; in assay [7] (setting [24]) it was 335 nM; in [15] it was 119 nM.
Regarding SEMVMCGGSL, the Kd in assay [16] (setting [27]) was 355 nM; in [17] (setting [27]) it was 2.24 nM; in assay [18] (setting [27]), 1020 nM; in assay [19] (setting [27]), 0.475 nM; in assay [20] (setting [27]), 12.3 nM; in [21] (setting [27]), 16.3 nM.
On to ISESRFQSL, for which the Kd in assay [3] (setting [24]) worked out at 5920 nM; in assay [4] (setting [24]) it was 11100 nM; in assay [5] (setting [24]), 39.6 nM; in assay [6] (setting [24]), 2890 nM; in [7] (setting [24]), 147 nM.
As to VELVAEMDG, the Kd was no less than 28300 nM in assay [16] (setting [27]); 10600 nM in [17] (setting [27]); no less than 77300 nM in assay [18] (setting [27]); no less than 76200 nM in assay [19] (setting [27]); no less than 24500 nM in [20] (setting [27]); no less than 29400 nM in assay [21] (setting [27]).
In the case of TERLKLFAA, the Kd in [16] (setting [27]) is 301 nM; in assay [17] (setting [27]), no less than 65800 nM; in assay [18] (setting [27]), 24 nM; in assay [19] (setting [27]) it was 19200 nM; in [20] (setting [27]) it was no less than 41200 nM; in assay [21] (setting [27]), 4.73 nM.
As for VLLDSITRL, the figures for the dissociation constant (Kd) in assay [22] and in assay [23] were no more than 1 nM and 4350 nM, respectively.
With REPVDQKQF, the Kd was no less than 47600 nM in assay [16] (setting [28]); 1630 nM in [17] (setting [28]); 11900 nM in assay [18] (setting [28]); no less than 40500 nM in assay [19] (setting [28]); 7920 nM in assay [20] (setting [28]); no less than 77700 nM in assay [21] (setting [28]).
Regarding SLNECIISF, the Kd in assay [7] (setting [24]) worked out at 66.9 nM.
On the same count and under the same terms, the same measure for FKVTTRRSI: 4.57 nM.
For the sequence EDIAMGYVV, the Kd in assay [16] (setting [29]) was 1500 nM; in assay [17] (setting [29]), 10300 nM; in assay [18] (setting [29]) it was 69.8 nM; in assay [19] (setting [29]), no less than 45300 nM; in assay [20] (setting [29]), no less than 38400 nM; in assay [21] (setting [29]), 2260 nM.
For the sequence LSINSSFYF, the Kd in [3] (source organism: Variola virus) stood at 970 nM; in assay [4] (source organism: Variola virus), 2960 nM; in [5] (source organism: Variola virus), 3160 nM; in assay [6] (source organism: Variola virus), 1.02 nM; in assay [7] (source organism: Variola virus) it was 4.81 nM.
On to SMVQILSSL, for which the Kd in assay [7] (source organism: Vaccinia virus Copenhagen) is no less than 77200 nM.
Consider AEIRASANLA, for which the Kd in assay [16] (setting [27]) was found to be 8130 nM; in assay [17] (setting [27]) it was 80.1 nM; in [18] (setting [27]), 2250 nM; in [19] (setting [27]), 202 nM; in assay [20] (setting [27]) it was 98.6 nM; in assay [21] (setting [27]) it was 4.63 nM.
As to CSTLPFHTW, the values for the Kd in assay [8] (setting [30]), in assay [9] (setting [30]) and in [10] (setting [30]) were 1.2 nM, 3.8 nM and 7.1 nM, respectively.
With HMPAARPEL, in assay [1] (setting [26]), the Kd worked out at 593 nM.
FSLGQGVKF registered a Kd in assay [8] (source organism: Shigella flexneri) of 1.9 nM.
Take KELSPRWYFY: the Kd in assay [16] (setting [27]) turned out to be 6750 nM; in [17] (setting [27]), 9.79 nM; in [18] (setting [27]), 309 nM; in assay [19] (setting [27]) it was 8570 nM; in [20] (setting [27]), 12.6 nM; in [21] (setting [27]), 4230 nM.
